Experimental data reported in patent US20250059282A1.

What was measured:
[1] = molecular target: Cyno PD-L1-Fc (cynomolgus) (UniProt G7PSE7); test: ForteBio, IgG, avid
[2] = molecular target: Cyno PD-L2-Fc (cynomolgus); test: ForteBio, IgG, avid
Mouse PD-L1-Fc (mouse) = Mouse PD-L1-Fc (mouse) (UniProt Q9EP73); test: ForteBio, IgG, avid
Mouse PD-L2-Fc (mouse) = Mouse PD-L2-Fc (mouse) (UniProt Q9WUL5); test: ForteBio, IgG, avid
Human PD-L1-HIS (human) = Human PD-L1-HIS (human) (UniProt Q9NZQ7); test: ForteBio, IgG, monovalent
Sequence of Human PD-L1-HIS (human) (Q9NZQ7 19-238 limits assumed): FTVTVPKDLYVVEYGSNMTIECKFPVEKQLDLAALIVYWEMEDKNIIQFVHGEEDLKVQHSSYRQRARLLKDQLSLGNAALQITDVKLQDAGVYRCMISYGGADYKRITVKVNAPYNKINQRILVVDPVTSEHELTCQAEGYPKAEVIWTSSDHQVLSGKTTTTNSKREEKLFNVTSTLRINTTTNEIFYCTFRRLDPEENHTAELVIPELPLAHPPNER

Human PD-L2-HIS (human) = Human PD-L2-HIS (human) (UniProt Q9BQ51); test: ForteBio, IgG, monovalent
Sequence of Human PD-L2-HIS (human) (Q9BQ51 20-220): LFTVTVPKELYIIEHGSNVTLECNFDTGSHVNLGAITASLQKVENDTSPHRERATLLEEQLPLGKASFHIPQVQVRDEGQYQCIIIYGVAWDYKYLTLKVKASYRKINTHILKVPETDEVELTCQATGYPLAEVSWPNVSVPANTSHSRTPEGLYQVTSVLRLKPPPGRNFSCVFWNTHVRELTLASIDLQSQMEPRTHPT

Sequence of Mouse PD-L2-Fc (mouse) (Q9WUL5 20-219 limits assumed): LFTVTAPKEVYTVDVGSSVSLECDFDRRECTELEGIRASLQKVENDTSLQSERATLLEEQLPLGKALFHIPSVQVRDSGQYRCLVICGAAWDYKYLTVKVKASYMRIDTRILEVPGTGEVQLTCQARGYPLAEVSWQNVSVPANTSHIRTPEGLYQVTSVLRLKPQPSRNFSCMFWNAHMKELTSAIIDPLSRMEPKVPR
Sequence of Cyno PD-L1-Fc (cynomolgus) (G7PSE7 entry or part of it limits assumed): as the sequence (Q9NZQ7 19-238 limits assumed) above, with A33T, A34S, S62N, R68Q, Q82R, F173L, T185A, T192I, H215L counted along it
Sequence of Mouse PD-L1-Fc (mouse) (Q9EP73 19-239 limits assumed): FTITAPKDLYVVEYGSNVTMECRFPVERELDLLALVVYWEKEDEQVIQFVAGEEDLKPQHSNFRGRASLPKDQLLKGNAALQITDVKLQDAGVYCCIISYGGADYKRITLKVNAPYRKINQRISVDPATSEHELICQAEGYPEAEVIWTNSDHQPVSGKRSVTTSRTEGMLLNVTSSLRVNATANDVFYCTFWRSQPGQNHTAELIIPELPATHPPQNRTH
Sequence of Cyno PD-L2-Fc (cynomolgus) (chain, as listed by the source): as the sequence (Q9BQ51 20-220) above, with V19A, P62S, S67L, V139I, P166H, T178A, H179Q, M194I counted along it

- Kd [1]: 0.442 nM
- Kd [2]: 0.621 nM
- Kd (Mouse PD-L1-Fc (mouse)): 2.97 nM
- Kd (Mouse PD-L2-Fc (mouse)): 0.694 nM
- Kd (Human PD-L1-HIS (human)): 15.5 nM
- Kd (Human PD-L2-HIS (human)): 2.2 nM
B1: BiPDL3-54 (antibody, part only; not given: light chain variable domain, V domains shown, part only)
VH: QVQLQQWGAGLLKPSETLSLTCAVYGGSLSGYPWSWIRQPPGKGLEWIGETDVSGWTDYNPSLKSRVTISVDTSKNQFSLKLSSVTAADTAVYYCARDGRRMGTPSFDIWGQGTMVTVSS
